The source of these data is publication PMC11872457 (2025).

The target in this experiment is T1, SARS-CoV-2 replicase polyprotein 1ab (CoV-YL8; identical in HKU1 and NL63) peptide on HLA-B*35:03 (human).
T1 peptide: YPDPSRIL
The experiment in a line: cytokine release.

B1: CoV-YL8 TCR (TCR)
alpha TRAV1-1 TRAJ4 CDR3: CAVRGISGGYNKLIF
beta TRBV19 TRBJ1-6 CDR3: CASSIEGSYNSPLHF
Regarding B1, the binding result was “recognises”.
